Data taken from patent US12186374B2 (Sanofi-Aventis Deutschland GmbH, priority 2014, dated 2025).

Test system: patients with T2DM
Experiment: Treatment-emergent adverse events incl. serious, fatal, leading to discontinuation (Example 3)
Conditions: Safety population

## Gly(A21)-Arg(B31)-Arg(B32)-human insulin [Insulin Glargine]
PT
  Number of patients experiencing serious TEAE(s): Acute myocardial infarction: 0
  Number of patients experiencing serious TEAE(s): Angina unstable: 0
  Number of patients experiencing serious TEAE(s): Arteriosclerosis coronary artery: 0
  Number of patients experiencing serious TEAE(s): Benign breast neoplasm: 0
  Number of patients experiencing serious TEAE(s): Benign gastric neoplasm: 0
  Number of patients experiencing serious TEAE(s): Benign prostatic hyperplasia: 1
  Number of patients experiencing serious TEAE(s): Breast cancer: 0
  Number of patients experiencing serious TEAE(s): Cardiac failure congestive: 1
  Number of patients experiencing serious TEAE(s): Cardiopulmonary failure: 1
  Number of patients experiencing serious TEAE(s): Chest discomfort: 1
  Number of patients experiencing serious TEAE(s): Cholecystitis acute: 1
  Number of patients experiencing serious TEAE(s): Cholecystitis chronic: 0
  Number of patients experiencing serious TEAE(s): Gallbladder cancer: 1
  Number of patients experiencing serious TEAE(s): Glaucoma: 1
  Number of patients experiencing serious TEAE(s): Hypertension: 1
  Number of patients experiencing serious TEAE(s): Hypoglycaemia: 1
  Number of patients experiencing serious TEAE(s): Hypoglycaemic seizure: 0
  Number of patients experiencing serious TEAE(s): Hypoglycaemic unconsciousness: 0
  Number of patients experiencing serious TEAE(s): Intervertebral disc protrusion: 1
  Number of patients experiencing serious TEAE(s): Kaposi’s sarcoma: 1
  Number of patients experiencing serious TEAE(s): Meniscus injury: 1
  Number of patients experiencing serious TEAE(s): Myocardial infarction: 0
  Number of patients experiencing serious TEAE(s): Non-cardiac chest pain: 2
  Number of patients experiencing serious TEAE(s): Osteoarthritis: 0
  Number of patients experiencing serious TEAE(s): Osteomyelitis: 1
  Number of patients experiencing serious TEAE(s): Pneumonia: 1
  Number of patients experiencing serious TEAE(s): Renal impairment: 1
  Number of patients experiencing serious TEAE(s): Scar: 0
  Number of patients experiencing serious TEAE(s): Squamous cell carcinoma of the tongue: 0
  Number of patients experiencing serious TEAE(s): Subdural haematoma: 0
  Number of patients experiencing serious TEAE(s): Supraventricular tachycardia: 0
  Number of patients experiencing serious TEAE(s): Tendonitis: 0
  Number of patients experiencing serious TEAE(s): Wound infection: 1
SOC
  % of patients experiencing TEAE(s) leading to permanent treatment discontinuation: Cardiac disorders: (0.3%)
  % of patients experiencing TEAE(s) leading to permanent treatment discontinuation: Neoplasms benign, malignant and unspecified (incl cysts and polyps): (0.3%)
  % of patients experiencing TEAE(s) leading to permanent treatment discontinuation: Pregnancy, puerperium and perinatal conditions: (0.3%)
  % of patients experiencing serious TEAE(s): Cardiac disorders: (0.5%)
  % of patients experiencing serious TEAE(s): Eye disorders: (0.3%)
  % of patients experiencing serious TEAE(s): General disorders and administration site conditions: (0.8%)
  % of patients experiencing serious TEAE(s): Hepatobiliary disorders: (0.3%)
  % of patients experiencing serious TEAE(s): Infections and infestations: (0.8%)
  % of patients experiencing serious TEAE(s): Injury, poisoning and procedural complications: (0.3%)
  % of patients experiencing serious TEAE(s): Metabolism and nutrition disorders: (0.3%)
  % of patients experiencing serious TEAE(s): Musculoskeletal and connective tissue disorders: (0.3%)
  % of patients experiencing serious TEAE(s): Neoplasms benign, malignant and unspecified (incl cysts and polyps): (0.5%)
  % of patients experiencing serious TEAE(s): Renal and urinary disorders: (0.3%)
  % of patients experiencing serious TEAE(s): Reproductive system and breast disorders: (0.3%)
  % of patients experiencing serious TEAE(s): Vascular disorders: (0.3%)
  Number of patients experiencing TEAE(s) leading to permanent treatment discontinuation: Cardiac disorders: 1
  Number of patients experiencing TEAE(s) leading to permanent treatment discontinuation: Gastrointestinal disorders: 0
  Number of patients experiencing TEAE(s) leading to permanent treatment discontinuation: Infections and infestations: 0
  Number of patients experiencing TEAE(s) leading to permanent treatment discontinuation: Investigations: 0
  Number of patients experiencing TEAE(s) leading to permanent treatment discontinuation: Neoplasms benign, malignant and unspecified (incl cysts and polyps): 1
  Number of patients experiencing TEAE(s) leading to permanent treatment discontinuation: Nervous system disorders: 0
  Number of patients experiencing TEAE(s) leading to permanent treatment discontinuation: Pregnancy, puerperium and perinatal conditions: 1
  Number of patients experiencing serious TEAE(s): Cardiac disorders: 2
  Number of patients experiencing serious TEAE(s): Eye disorders: 1
  Number of patients experiencing serious TEAE(s): General disorders and administration site conditions: 3
  Number of patients experiencing serious TEAE(s): Hepatobiliary disorders: 1
  Number of patients experiencing serious TEAE(s): Infections and infestations: 3
  Number of patients experiencing serious TEAE(s): Injury, poisoning and procedural complications: 1
  Number of patients experiencing serious TEAE(s): Metabolism and nutrition disorders: 1
  Number of patients experiencing serious TEAE(s): Musculoskeletal and connective tissue disorders: 1
  Number of patients experiencing serious TEAE(s): Neoplasms benign, malignant and unspecified (incl cysts and polyps): 2
  Number of patients experiencing serious TEAE(s): Nervous system disorders: 0
  Number of patients experiencing serious TEAE(s): Renal and urinary disorders: 1
  Number of patients experiencing serious TEAE(s): Reproductive system and breast disorders: 1
  Number of patients experiencing serious TEAE(s): Vascular disorders: 1
  % of patients experiencing TEAE(s) leading to permanent treatment discontinuation: Any TEAE leading to permanent treatment discontinuation: (0.8%)
  % of patients experiencing serious TEAE(s): Any serious TEAE: (4.9%)
  Number of patients experiencing TEAE(s) leading to permanent treatment discontinuation: Any TEAE leading to permanent treatment discontinuation: 3
  Number of patients experiencing serious TEAE(s): Any serious TEAE: 18
  Patients with any TEAE, number: 191 n
  Patients with any TEAE, percentage: (52.3%)
